Earlier results on four substances are cited in publication PMC6368066 (Neuromuscular disorders : NMD, 2018).

Where no end group is shown, it is not given here.

The target of data set [1] is Piezo 1 (UniProt E2JF22). In words: outside-out patch clamp. On the technique in general: The patch-clamp technique gives a direct electrical read-out from membranes.
For data set [2], the system named is mdx muscles. Conditions: mdx muscles in vitro, 10 μM.
The test system of data set [3] is dystrophin. Conditions: phase III trials, over 180 weeks.

Chain of UniProt E2JF22 (E2JF22 whole entry): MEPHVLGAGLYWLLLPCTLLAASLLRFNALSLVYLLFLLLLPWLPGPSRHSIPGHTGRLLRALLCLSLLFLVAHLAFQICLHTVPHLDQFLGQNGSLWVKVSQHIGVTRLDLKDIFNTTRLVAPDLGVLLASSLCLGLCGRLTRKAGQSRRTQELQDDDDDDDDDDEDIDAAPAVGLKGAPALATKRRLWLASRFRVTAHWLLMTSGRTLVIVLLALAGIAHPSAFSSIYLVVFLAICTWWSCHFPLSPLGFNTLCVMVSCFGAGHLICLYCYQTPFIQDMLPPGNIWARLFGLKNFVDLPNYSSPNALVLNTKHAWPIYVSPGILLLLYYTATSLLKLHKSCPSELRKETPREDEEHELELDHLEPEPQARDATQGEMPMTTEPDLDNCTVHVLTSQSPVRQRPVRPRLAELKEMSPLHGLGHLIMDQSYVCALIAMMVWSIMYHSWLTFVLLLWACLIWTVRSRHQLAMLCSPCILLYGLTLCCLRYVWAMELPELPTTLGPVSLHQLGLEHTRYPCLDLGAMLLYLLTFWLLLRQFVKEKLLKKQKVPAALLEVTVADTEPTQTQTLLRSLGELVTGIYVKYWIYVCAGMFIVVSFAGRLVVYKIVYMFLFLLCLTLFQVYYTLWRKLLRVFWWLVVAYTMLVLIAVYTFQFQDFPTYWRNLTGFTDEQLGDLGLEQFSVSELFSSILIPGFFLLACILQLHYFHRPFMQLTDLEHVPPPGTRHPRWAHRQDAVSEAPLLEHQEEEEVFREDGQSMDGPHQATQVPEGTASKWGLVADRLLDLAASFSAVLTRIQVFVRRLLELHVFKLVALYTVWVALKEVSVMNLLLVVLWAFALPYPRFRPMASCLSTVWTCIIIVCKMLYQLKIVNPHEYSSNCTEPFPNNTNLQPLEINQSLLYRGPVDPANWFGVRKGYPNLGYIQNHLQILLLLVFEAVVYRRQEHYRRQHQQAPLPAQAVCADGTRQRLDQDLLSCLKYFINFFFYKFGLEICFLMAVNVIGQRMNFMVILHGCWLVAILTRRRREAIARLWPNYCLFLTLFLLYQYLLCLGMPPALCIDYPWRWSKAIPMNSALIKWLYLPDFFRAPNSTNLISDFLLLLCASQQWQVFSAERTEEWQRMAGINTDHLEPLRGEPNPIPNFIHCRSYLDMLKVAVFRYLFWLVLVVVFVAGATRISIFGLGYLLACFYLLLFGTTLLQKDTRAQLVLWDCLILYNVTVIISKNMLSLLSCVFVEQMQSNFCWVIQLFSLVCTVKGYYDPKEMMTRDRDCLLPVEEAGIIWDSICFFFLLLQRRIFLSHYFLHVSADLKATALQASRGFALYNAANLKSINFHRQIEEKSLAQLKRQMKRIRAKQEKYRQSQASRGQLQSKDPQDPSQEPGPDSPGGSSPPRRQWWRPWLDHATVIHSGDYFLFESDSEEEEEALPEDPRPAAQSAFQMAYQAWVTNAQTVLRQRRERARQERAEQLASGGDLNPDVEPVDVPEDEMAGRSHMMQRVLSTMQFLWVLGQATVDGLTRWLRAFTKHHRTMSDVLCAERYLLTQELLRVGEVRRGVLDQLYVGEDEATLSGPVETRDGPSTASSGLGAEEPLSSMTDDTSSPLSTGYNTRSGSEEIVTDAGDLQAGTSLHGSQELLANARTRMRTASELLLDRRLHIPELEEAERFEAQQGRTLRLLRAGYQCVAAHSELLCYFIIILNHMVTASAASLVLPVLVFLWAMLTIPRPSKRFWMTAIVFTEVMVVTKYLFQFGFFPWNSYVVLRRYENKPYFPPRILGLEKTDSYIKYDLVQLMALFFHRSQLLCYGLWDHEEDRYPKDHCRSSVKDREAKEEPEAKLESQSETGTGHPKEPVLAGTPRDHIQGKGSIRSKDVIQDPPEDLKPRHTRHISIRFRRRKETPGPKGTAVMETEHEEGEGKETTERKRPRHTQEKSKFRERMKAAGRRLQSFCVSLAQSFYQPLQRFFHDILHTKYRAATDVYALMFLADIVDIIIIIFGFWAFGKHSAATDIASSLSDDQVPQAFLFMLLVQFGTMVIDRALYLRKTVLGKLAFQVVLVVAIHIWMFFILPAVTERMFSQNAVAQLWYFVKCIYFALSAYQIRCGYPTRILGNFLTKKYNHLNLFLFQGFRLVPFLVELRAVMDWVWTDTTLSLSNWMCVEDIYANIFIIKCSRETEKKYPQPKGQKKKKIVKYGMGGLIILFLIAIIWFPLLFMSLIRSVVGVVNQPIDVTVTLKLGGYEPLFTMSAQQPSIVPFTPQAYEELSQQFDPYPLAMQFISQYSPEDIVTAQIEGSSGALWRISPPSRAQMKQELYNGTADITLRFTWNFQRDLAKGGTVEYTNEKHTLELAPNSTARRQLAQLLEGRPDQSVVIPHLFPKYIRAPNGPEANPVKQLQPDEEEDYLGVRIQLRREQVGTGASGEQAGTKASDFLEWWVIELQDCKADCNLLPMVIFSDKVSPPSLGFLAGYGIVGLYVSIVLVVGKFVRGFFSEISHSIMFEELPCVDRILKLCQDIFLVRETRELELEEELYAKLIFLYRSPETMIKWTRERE

A word on the Kd: it is the constant that tells how readily two partners part at equilibrium. For GsMTx4 (from UniProt Q7YT39), the Kd in data set [1] was 500 nM.

Regarding “GsMTx4: 34 amino acid peptide that selectively inhibits nonselective cationic MSCs (GCLEFWWKCNPNDDKCCRPKLKCSKLFKLCNFSF; ends and bridges not checked; cysteine pairing not given here; UniProt Q7YT39 47-80, looked up)”, the contraction-induced dye accumulation result in data set [2] is given as “reduced contraction-induced dye accumulation”. On to eteplirsen, for which the dystrophin levels in data set [3] is recorded as ~ 1 % of normal dystrophin levels. glucagon: the serum half-life was 1 to 2 min.
